Reference: publication PMC6901390, “Cell-Free Enzymatic Conversion of Spent Coffee Grounds Into the Platform Chemical Lactic Acid” (Frontiers in Bioengineering and Biotechnology, 2019)

B1: LDH (Geobacillus stearothermophilus) (protein)
chain: MKNNGGARVVVIGAGFVGASYVFALMNQGIADEIVLIDANESKAIGDAMDFNHGKVFAPKPVDIWHGDYDDCRDADLVVICAGANQKPGETRLDLVDKNIAIFRSIVESVMASGFQGLFLVATNPVDILTYATWKFSGLPHERVIGSGTILDTARFRFLLGEYFSVAPQNVHAYIIGEHGDTELPVWSQAYIGVMPIRKLVESKGEEAQKDLERIFVNVRDAAYQIIEKKGATYYGIAMGLARVTRAILHNENAILTVSAYLDGLYGERDVYIGVPAVINRNGIREVIEIELNDDEKNRFHHSAATLKSVLARAFTR
notes: synthetic gene, His-tagged, pETDuet-1, expressed in E. coli BL21 (DE3), Ni-NTA purified
B2: KDGA (Thermoplasma acidophilum DSM 1728) (protein)
chain: MYKGIVTPMITPMGQNGEIDYRATEILIDNLADFGVDGLFPMGSTGLFPMFSTDEKKKFLGFVRDHSKKIEVYAGVGSSSTQESVELSKYTEDIGIKVRVLMPTYYIKPDEDWMYRHFSTVISAASNDLFIYNIPQLSGSWISESLIEKLTREFSNVKGIKDSSGDMRFFSRIIRHKNEKFDIFQGQDDLLFLSLSIGASGGVCGLSNISPYITNLYHEFSAGNLEKARKIQIDEVNPLMYAINEATFPAGYYYAFYKMNGIKGGYRAPMVEPTTDQKKKIDQELTKIPKKQ
notes: His-tagged, pProEX HTc, expressed in E. coli BL21-CodonPlus (DE3)-RIL, Ni-NTA purified

Legend:
Assay in all cases: purified protein
[1] = substrate: CC(=O)C(=O)O; format: biochemical, Geobacillus stearothermophilus; conditions: 0.2 mM NADH, 20 mM sodium phosphate pH 7.0, 50 °C, 0-50 mM pyruvate
[2] = substrate: O=C[C@H](O)CO; conditions: pyruvate and D-glyceraldehyde varied together (0.5-40 mM), one combined Km, 20 mM sodium phosphate pH 7.0, 50 °C
[3] = substrate: CC(=O)C(=O)O; format: biochemical, Thermoplasma acidophilum; conditions: pyruvate and D-glyceraldehyde varied together (0.5-40 mM), one combined Km, 20 mM sodium phosphate pH 7.0, 50 °C

Protein | Km [1] | Vmax [1] | kcat [1] | kcat/Km [1] | Km [2] | Vmax [2] | kcat [2] | kcat/Km [2] | Km [3] | Vmax [3] | kcat [3] | kcat/Km [3]
B1 | 10.95 ± 1.67 mM | 194 µmol/min/mg | 117 s⁻¹ | 10600 M⁻¹ s⁻¹ | – | – | – | – | – | – | – | –
B2 | – | – | – | – | 8.07 ± 1.29 mM | 17 µmol/min/mg | 10.5 s⁻¹ | 1300 M⁻¹ s⁻¹ | 8.07 ± 1.29 mM | 17 µmol/min/mg | 10.5 s⁻¹ | 1300 M⁻¹ s⁻¹
